From publication doi:10.1101/870071 (bioRxiv, 2019)
Blank lines part the entries; values can stand above or below the binder they belong to.

Columns and labels:
[1] = biological target: GST-hExo70 (human Exo70) (human, UniProt Q9UPT5 1-735); test: pull-down
[2] = biological target: GST-Exo70p (yeast Exo70) (yeast, UniProt P19658 1-623); test: pull-down
Chain of GST-Exo70p (yeast Exo70) (P19658 whole entry): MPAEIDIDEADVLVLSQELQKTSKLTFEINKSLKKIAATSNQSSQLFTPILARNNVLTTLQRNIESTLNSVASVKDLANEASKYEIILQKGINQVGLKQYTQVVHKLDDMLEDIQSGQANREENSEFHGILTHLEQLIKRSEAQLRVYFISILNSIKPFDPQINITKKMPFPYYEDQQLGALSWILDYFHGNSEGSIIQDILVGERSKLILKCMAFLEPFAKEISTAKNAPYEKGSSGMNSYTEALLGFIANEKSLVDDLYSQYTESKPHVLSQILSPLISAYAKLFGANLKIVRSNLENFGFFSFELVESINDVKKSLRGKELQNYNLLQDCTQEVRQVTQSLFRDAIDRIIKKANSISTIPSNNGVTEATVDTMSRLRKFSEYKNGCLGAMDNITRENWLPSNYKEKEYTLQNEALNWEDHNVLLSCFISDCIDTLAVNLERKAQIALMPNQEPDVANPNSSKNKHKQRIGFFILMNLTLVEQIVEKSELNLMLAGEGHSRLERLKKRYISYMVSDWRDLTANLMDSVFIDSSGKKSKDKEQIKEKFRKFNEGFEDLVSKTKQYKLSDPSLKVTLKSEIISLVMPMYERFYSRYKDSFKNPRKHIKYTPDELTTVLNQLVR

Chain of GST-hExo70 (human Exo70) (Q9UPT5 whole entry): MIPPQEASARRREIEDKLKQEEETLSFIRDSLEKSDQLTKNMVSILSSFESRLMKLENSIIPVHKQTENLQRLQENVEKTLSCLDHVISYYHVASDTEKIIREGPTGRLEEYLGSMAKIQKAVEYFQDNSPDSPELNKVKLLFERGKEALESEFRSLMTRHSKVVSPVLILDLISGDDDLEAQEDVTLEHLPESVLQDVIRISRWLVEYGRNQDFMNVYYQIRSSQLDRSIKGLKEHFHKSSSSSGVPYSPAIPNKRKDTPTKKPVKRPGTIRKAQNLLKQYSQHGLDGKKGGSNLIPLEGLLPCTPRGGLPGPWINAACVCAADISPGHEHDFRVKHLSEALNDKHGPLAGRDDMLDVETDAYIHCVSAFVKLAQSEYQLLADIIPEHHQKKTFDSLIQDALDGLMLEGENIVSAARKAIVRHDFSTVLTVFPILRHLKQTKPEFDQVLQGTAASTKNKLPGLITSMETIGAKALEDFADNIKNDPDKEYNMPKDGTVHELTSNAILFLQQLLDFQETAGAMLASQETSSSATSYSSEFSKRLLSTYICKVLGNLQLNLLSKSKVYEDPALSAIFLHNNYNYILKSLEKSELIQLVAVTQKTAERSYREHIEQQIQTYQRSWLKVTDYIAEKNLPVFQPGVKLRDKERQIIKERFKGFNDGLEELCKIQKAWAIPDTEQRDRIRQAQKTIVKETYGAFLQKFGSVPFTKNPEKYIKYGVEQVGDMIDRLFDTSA

- fold binding against yeast Exo70p [1]: 4 fold
B1: His-GIV-CT (C-terminus of GIV/Girdin), wild type (domain or fragment)
chain: SETLESRHHKIKTGSPGSEVVTLQQFLEESNKLTSVQIKSSSQENLLDEVMKSLSVSSDFLGKDKPVSCGLARSVSGKTPGDFYDRRTTKPEFLRPGPRKTEDTYFISSAGKPTPGTQGKIKLVKESSLSRQSKDSNPYATLPRASSVISTAEGTTRRTSIHDFLTKDSRLPISVDSPPAAADSNTTAASNVDKVQESRNSKSRSREQQSS

- fold binding against human Exo70 [2]: 2 fold
B2: His-Bem1p (natural protein, yeast, UniProt P29366 1-551, looked up)
chain: MLKNFKLSKRDSNGSKGRITSADISTPSHDNGSVIKHIKTVPVRYLSSSSTPVKSQRDSSPKNRHNSKDITSPEKVIKAKYSYQAQTSKELSFMEGEFFYVSGDEKDWYKASNPSTGKEGVVPKTYFEVFDRTKPSSVNGSNSSSRKVTNDSLNMGSLYAIVLYDFKAEKADELTTYVGENLFICAHHNCEWFIAKPIGRLGGPGLVPVGFVSIIDIATGYATGNDVIEDIKSVNLPTVQEWKSNIARYKASNISLGSVEQQQQQSITKPQNKSAKLVDGELLVKASVESFGLEDEKYWFLVCCELSNGKTRQLKRYYQDFYDLQVQLLDAFPAEAGKLRDAGGQWSKRIMPYIPGPVPYVTNSITKKRKEDLNIYVADLVNLPDYISRSEMVHSLFVVLNNGFDREFERDENQNNIKTLQENDTATFATASQTSNFASTNQDNTLTGEDLKLNKKLSDLSLSGSKQAPAQSTSGLKTTKIKFYYKDDIFALMLKGDTTYKELRSKIAPRIDTDNFKLQTKLFDGSGEEIKTDSQVSNIIQAKLKISVHDI
